Test results as given in patent publication US20190367619A1 (ARGENX, published 2019).
Residue numbers refer to the chain shown, from its start. Each block holds one binder with its values, some of them ahead of it.

What was measured:
human galectin-10-His [1] = molecular target: T1, human galectin-10-His (human); experiment: binding ELISA (summary table)
T1 construct: The last M of the tag may be Met1 of galectin-10; also called humanGal10-His; hGal10
T1 chain: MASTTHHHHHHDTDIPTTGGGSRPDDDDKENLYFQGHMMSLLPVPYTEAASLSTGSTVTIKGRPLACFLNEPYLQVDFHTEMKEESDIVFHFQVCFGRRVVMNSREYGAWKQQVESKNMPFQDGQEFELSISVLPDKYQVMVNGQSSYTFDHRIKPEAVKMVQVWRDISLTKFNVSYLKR
Experimental: (§1) In a similar setup to that used during the initial screening, the relative binding properties of the 11 new scFv-human Fc clones were analyzed by ELISA. Briefly, a Maxisorp plate was coated overnight with human or cynomolgus WGS or YRT isoforms of galectin-10-His at 0.2 μg/mL and blocked with PBS 1% casein, before being incubated with a serial dilution of the scFv-human Fc fusion molecules (from 100 nM, dilution 1/5, 8 points of dilutions). After several washing steps, detection of the bound scFv-human Fc was carried out with an anti-human Fc-HRP antibody (Jackson ImmunoResearch, Catalog 109-035-008). Absorbance was measured at 450 nm (reference at 620 nm) with Tecan instrument. Finally, the raw data (OD values) were plotted on GraphPad Prism 7.01. The EC50 values of each clone, calculated with a non-linear regression (log(agonist) vs. response Variable slope (four parameters)) are reported in Table 19 below. As a positive control, clone 6F05 from the previous galectin-10 antibody panel was included.

[2] = molecular target: T2, cynomolgus galectin-10-His, WGS isoform (cynomolgus); experiment: binding ELISA (summary table)
T2 construct: also called cynoGal10-WGS; not shown: His tag
T2 chain: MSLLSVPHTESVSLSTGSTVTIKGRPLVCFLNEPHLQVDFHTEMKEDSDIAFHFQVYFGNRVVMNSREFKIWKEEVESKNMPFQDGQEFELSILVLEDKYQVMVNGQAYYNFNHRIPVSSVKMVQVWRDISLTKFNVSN
Experimental: as §1

[3] = molecular target: T3, cynomolgus galectin-10-His, YRT isoform (cynomolgus); experiment: binding ELISA (summary table)
T3 construct: also called cynoGal10-YRT; not shown: His tag
T3 chain: T2 chain with K23E, G24A, L31F, F69Y, K70R, I71T, S92R
Experimental: as §1

human galectin-10-His [4] = molecular target: T1, human galectin-10-His; experiment: ELISA, coated antigen 0.2 ug/mL
Experimental: as §1

[5] = molecular target: T2, cynomolgus galectin-10-His, WGS isoform; experiment: ELISA, coated antigen 0.2 ug/mL
Experimental: as §1

[6] = molecular target: T3, cynomolgus galectin-10-His, YRT isoform; experiment: ELISA, coated antigen 0.2 ug/mL
Experimental: as §1

human galectin-10-His [7] = molecular target: T1, human galectin-10-His; experiment: SPR Biacore (summary table)
Experimental: (§2) The binding properties of the scFv-human Fc panel to galectin-10 were analyzed on the Biacore T3000. For this purpose, a CM5 Chip was coated with polyclonal anti-human Fc at 8000 RU, then a fixed concentration of the scFv-human Fc panel (1.5 μg/mL) were captured to reach a binding signal around 150 RU. Finally, a serial dilution of human or cynomolgus WGS isoform of galectin-10-His (serial dilution, 1 over 2 from 5 μg/mL, 6 points of dilution) was injected. Raw data were analyzed via BIA evaluation software with a blank subtraction (4-3). Finally, the kd/KD and Rmax of each scFv-human Fc to galectin-10-His was determined using the Fit Kinetics simultaneous ka/kd/Binding with mass transfer/Local Rmax on BIA evaluation software.

[8] = molecular target: T2, cynomolgus galectin-10-His, WGS isoform; experiment: SPR Biacore (summary table)
Experimental: as §2

human galectin-10-His [9] = molecular target: T1, human galectin-10-His; experiment: SPR Biacore T3000, scFv-human Fc captured
Experimental: as §2

[10] = molecular target: T2, cynomolgus galectin-10-His, WGS isoform; experiment: SPR Biacore T3000, scFv-human Fc captured
Experimental: as §2

B3: 11F02 scFv-human Fc (Fc fusion)
scFv: ELQVVESGGGLVQPGGSLRLSCAASGFTFSTNYMNWVRQAPGKGLEWVSGITSHGARTYYADSVKGRFTISRDNSKNTLYLQMNSLKPEDTALYYCARTDHASLDAWGQGTLVTVSSGGGGSGGGGSGGGGSQTVVTQEPSLSVSPGGTVTLTCGLSSGSVTSSNYPGWYQQKPGQAPRTLIYNTNSRYSGVPNRFSGSISGNKAALTITGAQPEDEADYYCALYMGSSSYNTVFGGGTHLTVL
notes: also called 011F02; not shown: CH2-CH3 constant domains of human IgG1 (pUPEX50 scFv-Fc fusion vector)
EC50 (human galectin-10-His [1]): 0.77 nM
EC50 [2]: 10.4 nM
Bmax (human galectin-10-His [4]): 1.5 OD
EC50 (human galectin-10-His [4]): 0.77 nM
Bmax [5]: 2.5 OD
Bmax [6]: 2.5 OD
Kd (human galectin-10-His [7]): 5.4 nM
koff (human galectin-10-His [7]): 0.00203 s⁻¹
kon (human galectin-10-His [7]): 370000 M⁻¹ s⁻¹
Kd [8]: 7.9 nM
koff [8]: 0.00185 s⁻¹
kon [8]: 240000 M⁻¹ s⁻¹
Kd (human galectin-10-His [9]): 5.4 nM
koff (human galectin-10-His [9]): 0.00203 s⁻¹
kon (human galectin-10-His [9]): 370000 M⁻¹ s⁻¹
Kd [10]: 7.9 nM
koff [10]: 0.00185 s⁻¹
kon [10]: 240000 M⁻¹ s⁻¹

B4: 10D02 scFv-human Fc (Fc fusion)
scFv: EVQLVESGGGLVQPGGSLRVSCAASGFTFSSYYMSWVRQAPGKGLEWVSGIVTGGGRTHYTDSVKGRFTITRDNAKNTLYLQMNSLRPEDTALYYCARVNGVVTNYDYWGQGTQVTVSSGGGGSGGGGSGGGGSQAVLTQPPSVSGSPGKTVTISCAGTSSDVGYGNYVSWYQQLPGMAPKLLIYDVNKRASGITDRFSGSKSGNTASLTISGLQSEDEADYFCASYRSPNNVVFGQGTHLTVL
notes: also called 010D02; not shown: CH2-CH3 constant domains of human IgG1 (pUPEX50 scFv-Fc fusion vector)
EC50 (human galectin-10-His [1]): 0.56 nM
EC50 [2]: 1.12 nM
EC50 [3]: 1.4 nM
Bmax (human galectin-10-His [4]): 1.9 OD
EC50 (human galectin-10-His [4]): 0.56 nM
Bmax [5]: 3.1 OD
EC50 [5]: 1.12 nM
Bmax [6]: 2 OD
EC50 [6]: 1.4 nM
Kd (human galectin-10-His [7]): 2 nM
koff (human galectin-10-His [7]): 0.00066 s⁻¹
kon (human galectin-10-His [7]): 340000 M⁻¹ s⁻¹
Kd [8]: 2.7 nM
koff [8]: 0.00122 s⁻¹
kon [8]: 450000 M⁻¹ s⁻¹
Kd (human galectin-10-His [9]): 2 nM
koff (human galectin-10-His [9]): 0.00066 s⁻¹
kon (human galectin-10-His [9]): 340000 M⁻¹ s⁻¹
Kd [10]: 2.7 nM
koff [10]: 0.00122 s⁻¹
kon [10]: 450000 M⁻¹ s⁻¹

The next binders have a lower EC50 (human galectin-10-His [1]) than those just listed; values first:

EC50 (human galectin-10-His [1]): 0.09 nM
EC50 [2]: 0.05 nM
EC50 [3]: 0.05 nM
Bmax (human galectin-10-His [4]): 2.2 OD
EC50 (human galectin-10-His [4]): 0.09 nM
Bmax [5]: 3.3 OD
EC50 [5]: 0.05 nM
Bmax [6]: 3.2 OD
EC50 [6]: 0.05 nM
Kd (human galectin-10-His [7]): 1.6 nM
koff (human galectin-10-His [7]): 0.00081 s⁻¹
kon (human galectin-10-His [7]): 500000 M⁻¹ s⁻¹
Kd [8]: 1 nM
koff [8]: 0.0008 s⁻¹
kon [8]: 770000 M⁻¹ s⁻¹
Kd (human galectin-10-His [9]): 1.6 nM
koff (human galectin-10-His [9]): 0.00081 s⁻¹
kon (human galectin-10-His [9]): 500000 M⁻¹ s⁻¹
Kd [10]: 1 nM
koff [10]: 0.0008 s⁻¹
kon [10]: 770000 M⁻¹ s⁻¹
B1: 10B02 scFv-human Fc (Fc fusion)
scFv: QVQLVESGGGLVQPGGSLRVSCAASGFTFSYHYMNWVRQAPGKGLEWVSGISAGGGRTYYADSVKGRFTISRDNAKNTLYLQMNSLNAEDTALYYCARVHGITNDYWGQGTQVTVSSGGGGSGGGGSGGGGSQSALTQPPSVSGSPGKTVTISCAGTSSDVGYGNYVSWYQQLPGMAPKLLIYEVNKRASGITDRFSGSKSGNTAFLTISGLQSEDEADYYCASYRNSNNWVFGGGTHLTVL
notes: also called 010B02; not shown: CH2-CH3 constant domains of human IgG1 (pUPEX50 scFv-Fc fusion vector)

EC50 (human galectin-10-His [1]): 0.08 nM
EC50 [3]: 0.04 nM
Bmax (human galectin-10-His [4]): 1.2 OD
EC50 (human galectin-10-His [4]): 0.08 nM
Bmax [6]: 3 OD
EC50 [6]: 0.04 nM
Kd (human galectin-10-His [7]): 0.3 nM
koff (human galectin-10-His [7]): 0.00025 s⁻¹
kon (human galectin-10-His [7]): 910000 M⁻¹ s⁻¹
Kd (human galectin-10-His [9]): 0.3 nM
koff (human galectin-10-His [9]): 0.00025 s⁻¹
kon (human galectin-10-His [9]): 910000 M⁻¹ s⁻¹
B2: 10A06 scFv-human Fc (Fc fusion)
scFv: QVQLVESGGGLVQPGGSLRLSCAASGFTFGNYDMSWVRQAPGKGPEWVSDINSGGGSTYYADSVKGRFTISRDNAKNSLLLQMNSLKPEDTAVYYCATGYTGYYYWGQGTQVTVSSGGGGSGGGGSGGGGSQTVVTQEPSLSVSPGGTVTLTCGLSSGSVTSSNYPAWYQQTPGQAPRALIYSINSRHSGVPDRFSGSISGNKAALTITGAQAEDEADYYCTLYMGTGSNNVVFGGGTHLTVL
notes: also called 010A06; not shown: CH2-CH3 constant domains of human IgG1 (pUPEX50 scFv-Fc fusion vector)
